Consider one substance from patent publication US20180289842A1.

This test concerns the target albumin. Description: albumin binding constant (K), same method as the earlier dye-albumin study; method not described.

On to “LS838: Cypate-Cyclo(DCys-Gly-Arg-Asp-Ser-Pro-Cys)-Tyr-OH (peptide)”, for which the Ka was determined as 86000 M⁻¹.
